Experimental data from patent publication US10155985B2, “Evaluation of eosinophilic esophagitis” (CHILDREN'S HOSPITAL MEDICAL CENTER, priority 2004, dated 2018).

B1: SEQ_ID_#52 (nucleic acid, listed as Homo sapiens)
DNA: TTTTTTTCCAAGGGGAGAATGAAGCCATTTTATTTAGGGGAATGTTAAAACAAAGCCATATACAATCTGTAACAAATACAATACAATTGTTTGTTCCCTAGTCCTGAATAATTACAGTATATACAAAATCTGTAAGGCACTGGTTCCCCCAAAAGAACAAATGAGTCTTCTTGTGAAACAGACAACGAAACCCCTATATTGCCAACTTTTCTCCAAAAAATATGGCATTGTTTTTTTGTTTTGTTTTACAAGAGGAATCACAATTGCTAAATTAAGTCACTTCTGATGCCATTTCTTTCATTTCCACTGCTATGTGTCTGGGTTTTCTAAGGCAATGTAACTACTGAACATGTTCAAGTTTAAAAAACTATACTTCTCTCAGTGCCGTTCCACCCACAAACAAAGAAGAATCAGATCA
B2: SEQ_ID_#186 (nucleic acid, listed as Homo sapiens)
DNA: CACCGGCTACAAGGCTAGACCGGGGGCTCGCATATCTCCACTTGCAGCTGCCACTGCCATTAGAAGAACTTGCTCAGCCAGCTCCTGGGCCCCAGGAAAAGGACAAGTGTCACCCAGAACAGAGCCACCTCCAGCTGCACTCAGCTCCAGAAGCTGGCCCAGCCGGTCCAGTACACCTTTTAAATAATGTCCTCTACGTGCCGGTGTGGAAGTAGCCCGGATGCAATTGAATGAACAACAGACGGTGCTTTCCAGGACGGCGCTGTGCTTTCCAGGATGGTGCTGTGCTTTCATTCATTTGGGTAGCTCCTCTGTGAGCCTCCCAGCGCCGACTGCAGAGCCCCCACTCTCCAGCCTGCAAGACCCCGAAATTCAAGCCACACAAAGAAAGGAGGAGGGGGCCGTGGCATTTACTGAACCTTATAAAACTGTCAGCAAAACAGCCCTTAGGCTTGGACTCCCTGCTAGCCGGGTTTTACGGTGCTGAAGTCAGCATCTTGATTCAGCTGCATAAATAATCTCCTGCAGTCCTGCAAGGCCTGGGGTAGGAGAGGGTATGGGGACCAGGGCACTCTGTAAGGGCTGGATAGGAACCCCAGGGAATAAGACAGACCAATGCGGGACTTCAGACTCCACTGCAGCGGGATCGGG
B3: SEQ_ID_#165 (nucleic acid, listed as Homo sapiens)
DNA: CCAAAAAGTCAGTTGATATGACACAGTCACAGACAGAACAGTCAGCAGCCCAAGAAAGGTCCTCACGGCTGCTGTGCTGGGTAGCACTTGCCATCCAGTTTCTAGAGTGATGAAATGCTCTGTCTGTACCGTTCAATACAGTAGGCACTGGCACTAGCCACATGTGCCAGCTAAGCACTTGAAATGTGGCCAGTGCAATAAGGAATTGAACTTTTAATTGCATTTAATAAACTGTATGTAAATAG
B4: SEQ_ID_#243 (nucleic acid, listed as Homo sapiens)
DNA: GGAAAGAGAGGAGAGGGGAGGGGAAGAGAGGGGAGGGAAGGGCAGGGCAGGGCAGAGCCCGGCAGGCAGCCCTCAGAGGAGGGGCGCAGGCCCCAGCCCAAGGCCTCCCGCGCCTGCCCAGGTCCCGGCCTCCATCGTCCAGGGCTCTGGGGCTCCCAGGGGAGACACCCACGCTCGGCCAAGCCCAGGGTTCCAGAAGCCCAGGGGTGGCGGCAGCCGGGCTCAGCCTATGGCCAGGCTCGCATTCAGACATGCGCCAGCCTCGGTCGGCTCTCTCCGGGAGACACTAAGATCTCCTCACTGACTTTGGTGTTCCTTGGTCTCACCAGCGCGTCCTAGCTGTGCCGAGCTCACACCCACCCTGTTTGGTGTAAGCCACAGGTCCACAACGTTCATCAGCTCTGGAAATCCCTCAACAATTGTGTCCAGTTTCACCACGAATTCCTTCTCCATATCCTCACCATTTTCTTTTACCCCCTCATCAAATTACTCCCTTCCGTCTAATCTGCTGATTAACTCATTCATTTTATCTTAAATTATTATG
B5: SEQ_ID_#185 (nucleic acid, listed as Homo sapiens)
DNA: AATAATTAATGCAATTTAATGACAATAAATAAACTTCAAAGTCCCGCCAAAACCAGCAGAACCTCATCAAAGCAAAAGAAACAAGCTTCTTTCCAGCTCAGAGGTGAAGCGCTGCAGATGGCCAGTGTTTCATCTCGAGGGGAGGGTTGGGAAAGGCTGTGGAATGAGGG
B6: SEQ_ID_#43 (nucleic acid, listed as Homo sapiens)
DNA: TTCACTTTTTCATTATTTTATTGTTGTTTTAGTAGCATTTTGAGGTGAATGTATGCATAATCAGTGAATTAGACAAGCATGCACATACATGATATCTGATCAAACATTTTTTTGTCTCTCATCATCCTCATAAAATTTATTCAGTGGGAGAAGCTTTTTCTTCCATCAGATACATTCCAGTTGTATGCCAACATACTCAGGTAAGAGCAACATTTTGGTCATTTTAAATAGTTTGGTAATTATGACTCCCAGTCGCCTACAATAAGAAGAAACTACAATAATTTAGTACTAAATTTTTCTTCCCTCTCCAACTGAGTCTTGTGTTGAGTTGCCTACTTGCGCTAGCACATCTTCCCTTGCTGGTTGACATTTTTGCTAAGATTTCTCCCTCTCCTTCCACCCCACCTTGGACACGGAGGTTTCTGGCCTCCCTTTCCCCAAGGTCCCCAAAAAAAGAAATCTGTCTTATGAGATAGGGCTGCCTTCACATGGTGTCAGGGTTCTCTGGATAGTAATTGTGTGTAATAAGAGAGGGAGCATTCAAGAACTCCCATAGAAATTCTCATAGCCCTGACTTCTCATCTTTAGCTTGTGTAGATTTTTTTGTATTCCAGGTGGTCATTTGTGACTCCTTCCTCATCCCACAATCTGGCTTCACCTCCCACTTCTTGATGCTGGGTTCCCTCCACCTCTTTGGACAACCTATCAGAGAGGACCTAAAGAGCCCATGCTGACTTCACTCTTGCATGTCTCACTATGGTTCATGGGAAACCACACATCCATTGCCCTGACAACACTAGACATACAGGC
B7: SEQ_ID_#19 (nucleic acid, listed as Homo sapiens)
DNA: ATGGCCTGGACCCCTCTGCTCCTCATGTTCCTCTCTCATTGCTCAGGTGAGAACTGGTTTTAGGTGTCTAGGGTTAGCTCCTTAGCTTGCGTCAGCCTCTCTGGCTCAGATCCCCAAGACATGTATCTCTAGTTCCTGCCCCAGCCCCCATGAGTGTCTGTGCTTGCAGGTTCCCTCTCCCAGCCTGTGCTGACTCAGATGACCTCACTCTCTGCATCTCCGGGAGCATGAGCCAGACTTACCTGCACCCTGAGCAGTGGCTTCAGAGTTGGTAACTTTGCAATATAGTGGTCAGCTGAAGCCAGGCAGCCGTCCCAGGTGTCTCCTGAGATACTACTCAGACTCAAATATCACTCAGCACCCTGGGGTTCCCATCCACTTCTCTGGATCCAATGATACATTAGCCAATGCAGGGATTCTGTACATTCCTGGGCTGAAGCCTGAGGGTGAGGCTATTACTGTTGTACGTGTCACAGCAGCTCCAAGT
B8: SEQ_ID_#245 (nucleic acid, listed as Homo sapiens)
DNA: TTTTTTTTTTGTATTTTTTGCAGGGACAGGGTTTCACCATATTGCTCAGGGTAGTCTCGAACTCCTGAGCTCAAGGGATCCACCCTGCCTTGGCCTCCCAGTGTGCTGGGATTTCACACGTGAGCCACCGAGCCCAGCTACATTCTTATTTCCTAAACTTTACAAGTTCACACTCTTCCCTTTAAACAAATGTGCCCCCTCTGGCGGTGTCATTTGAGTCCCGGTGTATGTCATTAAGCCTCTTAACCTCAACCACTACTTCCCACTGAAATAACTCTATTTTCTTTTTTTCTAATGAAAAAGTAAGACATGTTCTATGTAAAAATTAAAATATGGTGAGCACTTACCACTTACTATGAGCCAGGCATTGAACTAAGTATTTTTTAATCTTATTTTCATCCTCGTGATATGAGGTCAGTGCTTTGATGAGTTCCATTTTACGTAAGAAAGTAGTTAAG

Assays:
EE transcriptome [1] = assay: EE transcriptome of EE patients after fluticasone propionate treatment; type: in vivo, human; details: EE patients treated; FIG. 6
Method: The data were analyzed by cluster analysis and ordered (standard correlation (A) and distance (B)) using Genespring software. […] Each column represented a separate individual and each line a gene. RNA from each patient was subjected to chip analysis using Affymetrix Human Genome U133 GeneChip plus 2.
In one embodiment, the EE transcriptome was used to evaluate EE patients pre- and post-treatment regimens.
This group of 13 non-responsive genes is SEQ ID NOS. 6, 35, 43, 61, 129, 1358, 1441, 1515, 1538, 1584, 1615, 1618, and 1620. Evaluation of these genes provides a marker of past, present, and/or future active disease, especially in the absence of overt disease. […] Thus, these 13 genes can be used to evaluate a patients propensity to EE, particularly in the absence of clinical or physical symptoms of EE or microscopic findings typical of EE. […] These 13 genes can be used to evaluate EE in an asymptomatic population or when past EE is suspected in a non-active EE individual at the time of endoscopy.

eosinophilic esophagitis = details: cited from earlier work
[2] = system: esophageal epithelial cells; assay: Transcriptome of esophageal epithelial cells stimulated with IL-13, compared to the EE transcriptome; type: cell-based
From the text: In one embodiment, the EE transcriptome was compared to transcriptomes in cell/tissues that had been treated with one or more compounds potentially involved with and/or efficacious against EE. By comparing the EE transcriptome to the transcriptome of, e.g., a simple in vitro or ex vivo model of a particular compound, one can assess the percentage of genes that are dysregulated in EE due to that particular compound.
For example, in ex vivo or in vitro models, a compound was used to stimulate an esophageal cell type.

EE transcriptome [3] = assay: Genome-wide microarray transcript profiling of esophageal biopsies, EE patients vs normal individuals (EE transcriptome); details: transcript level in esophageal biopsies of EE patients (n=76) compared to normal individuals (n=13); Affymetrix Human Genome U133 plus 2; p<0.01
Outline: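 Distal esophageal biopsies from EE patients (n=76; >24 eosinophils/hpf, basal hyperplasia) and normal controls (n=13; 0 eosinophils/hpf) profiled on Affymetrix Human Genome U133 plus 2 chips. Expression by absolute call and average difference, global scaling; transcriptome genes defined as p<0.01 (Welch t-test) and ≥1.5-fold change.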

Row | Molecule | Fold Change (EE transcriptome [3]) | other results
1 | CCC(=O)O[C@]1(C(=O)SCF)[C@H](C)C[C@H]2[C@@H]3C[C@H](F)C4=CC(=O)C=C[C@]4(C)[C@@]3(F)[C@@H](O)C[C@@]21C [fluticasone propionate] | – | number of EE transcriptome genes normalized by treatment (EE transcriptome [1]): 1605 genes/1620 genes; number of EE transcriptome genes resistant to treatment (EE transcriptome [1]): 13 genes/1620 genes; share of the EE transcriptome resistant to treatment (EE transcriptome [1]): less than 1%; effect on EE disease (eosinophilic esophagitis; Gastroenterology 131 (2006) 1381): induce EE disease remission; effect on EE gene dysregulation (eosinophilic esophagitis; J. Allergy Clin. Immunol. 120 (2007) 1292, U.S. Ser. No. 61/118,981): reverse EE gene dysregulation
2 | interleukin 13 [IL-13] | – | share of the genes of the EE transcriptome potentially due to stimulation of esophageal epithelial cells [2]: 20%
3 | B1 | 5.183 | –
4 | B2 | 2.617 | –
5 | B3 | 2.732 | –
6 | B4 | 2.308 | –
7 | B5 | 2.62 | –
8 | B6 | 5.944 | –
9 | B7 | 10.29 | –
10 | B8 | 2.303 | –
